The assay deals with Drosophila melanogaster TRPA1, dTRPA1-A isoform (Drosophila melanogaster). Kind of assay: cryo-EM structure; purified dTRPA1-A in 25 mM HEPES pH 7.4, 150 mM NaCl, 0.02% GDN; grids prepared at 8 °C; two conformations (state-1, 3.2 Å; state-2, 3.0 Å) from the same sample.

The values below come from PMC10073219.

In turn, “Drosophila melanogaster TRPA1, dTRPA1-A isoform (natural protein)” displayed a stoichiometry N of 4.
